Laboratory results as given in patent US20190388471A1 (published 2019).
Numbering of substitutions follows the chain as printed. Values belong to the binder of their own block, whether it stands above or below them.

Molecular target: T1, human CD19 (full length, expressed on cells) (human, UniProt P15391 20-556)
T1 construct: whole, on cells; The functional assays used K562 cells transduced to express CD19; also called hsCD19; hCD19
T1 sequence (looked up): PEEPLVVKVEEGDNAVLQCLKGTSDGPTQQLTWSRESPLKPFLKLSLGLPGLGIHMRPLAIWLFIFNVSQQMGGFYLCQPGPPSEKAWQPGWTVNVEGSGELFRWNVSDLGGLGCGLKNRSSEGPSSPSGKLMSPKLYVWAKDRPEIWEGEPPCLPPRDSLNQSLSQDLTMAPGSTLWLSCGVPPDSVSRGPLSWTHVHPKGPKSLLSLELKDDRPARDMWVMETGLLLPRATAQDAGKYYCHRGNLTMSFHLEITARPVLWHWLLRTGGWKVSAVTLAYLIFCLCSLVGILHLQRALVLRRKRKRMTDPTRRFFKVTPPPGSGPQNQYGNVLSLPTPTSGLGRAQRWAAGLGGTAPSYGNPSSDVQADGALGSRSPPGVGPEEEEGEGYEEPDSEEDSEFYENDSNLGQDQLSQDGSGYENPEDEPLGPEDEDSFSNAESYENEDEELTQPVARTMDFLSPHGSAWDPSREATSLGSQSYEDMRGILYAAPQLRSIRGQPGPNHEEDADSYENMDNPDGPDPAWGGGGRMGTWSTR
Assay: flow cytometry; His-tagged soluble scFv on mouse cell line 300 expressing hCD19
Method: Mouse cell line 300.CD19 were grown in RPMI 1640 with 0.5 mg/ml Zeocin. Around 5e5 cells/per well were transferred to the BD Falcon 96 well plate. The cells were spin down at 900 rpm (Sorval Legend XT centrifuge) for 3 minutes. The supernatant were removed. Anti-CD19 scFv protein samples were diluted in DPBS with 5% FBS. The samples were added into the wells, mixed well with the cells and incubated for 1 hour. The cells were washed twice in the DPBS with 5% FBS. The cells were incubated with antipoly His PE (R&D) for 1 hour, washed twice before FACS analysis (LSRII from BD Biosciences).

binding result: binds
B1: 100796 CAR7 Soluble scFv (scFv)
scFv: QVQLQESGPGLVKPSETLSLTCTVSGVSLPDYGVSWIRQPPGKGLEWIGVIWGSETTYYSSSLKSRVTISKDNSKNQVSLKLSSVTAADTAVYYCAKHYYYGGSYAMDYWGQGTLVTVSSGGGGSGGGGSGGGGSGGGGSEIVMTQSPATLSLSPGERATLSCRASQDISKYLNWYQQKPGQAPRLLIYHTSRLHSGIPARFSGSGSGTDYTLTISSLQPEDFAVYFCQQGNTLPYTFGQGTKLEIKHHHHHHHH
notes: also called CAR7 scFv; humanized scFv

binding result: binds
B2: 100796 CAR10 Soluble scFv (scFv)
scFv: B1 scFv with S60N
notes: The clone number 100796 is printed for both CAR7 and CAR10; also called CAR10 scFv; humanized scFv

binding result: binds
B3: 100798 CAR8 Soluble scFv (scFv)
scFv: B1 scFv with S60Q
notes: also called CAR8 scFv; humanized scFv

binding result: binds
B4: 103104 CAR 3 Soluble scFv (scFv)
scFv: QVQLQESGPGLVKPSETLSLTCTVSGVSLPDYGVSWIRQPPGKGLEWIGVIWGSETTYYSSSLKSRVTISKDNSKNQVSLKLSSVTAADTAVYYCAKHYYYGGSYAMDYWGQGTLVTVSSGGGGSGGGGSGGGGSEIVMTQSPATLSLSPGERATLSCRASQDISKYLNWYQQKPGQAPRLLIYHTSRLHSGIPARFSGSGSGTDYTLTISSLQPEDFAVYFCQQGNTLPYTFGQGTKLEIKHHHHHHHH
notes: also called CAR3 scFv; humanized scFv

binding result: binds
B5: 103106 CAR4 Soluble scFv (scFv)
scFv: B4 scFv with S60Q
notes: also called CAR4 scFv; humanized scFv

binding result: binds
B6: 103104 CAR12 Soluble scFv (scFv)
scFv: B4 scFv with S60N
notes: The clone number 103104 is printed for both CAR3 and CAR12; also called CAR12 scFv; humanized scFv

binding result: binds
B7: 99789 CAR5 Soluble scFv (scFv)
scFv: EIVMTQSPATLSLSPGERATLSCRASQDISKYLNWYQQKPGQAPRLLIYHTSRLHSGIPARFSGSGSGTDYTLTISSLQPEDFAVYFCQQGNTLPYTFGQGTKLEIKGGGGSGGGGSGGGGSGGGGSQVQLQESGPGLVKPSETLSLTCTVSGVSLPDYGVSWIRQPPGKGLEWIGVIWGSETTYYSSSLKSRVTISKDNSKNQVSLKLSSVTAADTAVYYCAKHYYYGGSYAMDYWGQGTLVTVSSHHHHHHHH
notes: also called CAR5 scFv; humanized scFv

binding result: binds
B8: 99789 CAR9 Soluble scFv (scFv)
scFv: B7 scFv with S187N
notes: The clone number 99789 is printed for both CAR5 and CAR9; also called CAR9 scFv; humanized scFv

binding result: binds
B9: 99790 CAR6 Soluble scFv (scFv)
scFv: B7 scFv with S187Q
notes: also called CAR6 scFv; humanized scFv

binding result: binds
B10: 103101 CAR1 Soluble scFv (scFv)
scFv: EIVMTQSPATLSLSPGERATLSCRASQDISKYLNWYQQKPGQAPRLLIYHTSRLHSGIPARFSGSGSGTDYTLTISSLQPEDFAVYFCQQGNTLPYTFGQGTKLEIKGGGGSGGGGSGGGGSQVQLQESGPGLVKPSETLSLTCTVSGVSLPDYGVSWIRQPPGKGLEWIGVIWGSETTYYSSSLKSRVTISKDNSKNQVSLKLSSVTAADTAVYYCAKHYYYGGSYAMDYWGQGTLVTVSSHHHHHHHH
notes: It is built here as scFv domain plus His tag; also called CAR1 scFv; humanized scFv

binding result: binds
B11: 103102 CAR2 Soluble scFv (scFv)
scFv: B10 scFv with S182Q
notes: also called CAR2 scFv; humanized scFv

binding result: binds
B12: 103101 CAR11 Soluble scFv (scFv)
scFv: B10 scFv with S182N
notes: The clone number 103101 is printed for both CAR1 and CAR11; also called CAR11 scFv; 103101-WT (S/N)
